T1: Human BCMA (human, UniProt Q02223 1-54)
T1 sequence: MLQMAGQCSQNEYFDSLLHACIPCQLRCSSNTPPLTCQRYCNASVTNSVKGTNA

T2: human CEA (human, UniProt P06731 35-685)
T2 sequence: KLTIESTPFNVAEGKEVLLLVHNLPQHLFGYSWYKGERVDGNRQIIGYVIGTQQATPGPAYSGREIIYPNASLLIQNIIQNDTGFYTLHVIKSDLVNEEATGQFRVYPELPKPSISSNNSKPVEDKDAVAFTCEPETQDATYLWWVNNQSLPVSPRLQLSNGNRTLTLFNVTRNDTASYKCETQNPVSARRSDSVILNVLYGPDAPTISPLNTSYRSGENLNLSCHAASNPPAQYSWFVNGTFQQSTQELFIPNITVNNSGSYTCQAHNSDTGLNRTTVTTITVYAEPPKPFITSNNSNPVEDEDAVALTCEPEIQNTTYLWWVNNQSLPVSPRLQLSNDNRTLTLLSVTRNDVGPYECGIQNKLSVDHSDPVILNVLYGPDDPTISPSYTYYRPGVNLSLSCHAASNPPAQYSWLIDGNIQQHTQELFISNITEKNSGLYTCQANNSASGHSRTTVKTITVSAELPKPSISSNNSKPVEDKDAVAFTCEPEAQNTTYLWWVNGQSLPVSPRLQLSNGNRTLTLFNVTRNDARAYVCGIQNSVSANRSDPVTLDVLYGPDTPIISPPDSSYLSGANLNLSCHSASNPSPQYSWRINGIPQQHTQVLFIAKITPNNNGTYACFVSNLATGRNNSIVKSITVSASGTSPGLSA

B1: M2IC-WT (bispecific antibody, human IgG1, kappa)
chain: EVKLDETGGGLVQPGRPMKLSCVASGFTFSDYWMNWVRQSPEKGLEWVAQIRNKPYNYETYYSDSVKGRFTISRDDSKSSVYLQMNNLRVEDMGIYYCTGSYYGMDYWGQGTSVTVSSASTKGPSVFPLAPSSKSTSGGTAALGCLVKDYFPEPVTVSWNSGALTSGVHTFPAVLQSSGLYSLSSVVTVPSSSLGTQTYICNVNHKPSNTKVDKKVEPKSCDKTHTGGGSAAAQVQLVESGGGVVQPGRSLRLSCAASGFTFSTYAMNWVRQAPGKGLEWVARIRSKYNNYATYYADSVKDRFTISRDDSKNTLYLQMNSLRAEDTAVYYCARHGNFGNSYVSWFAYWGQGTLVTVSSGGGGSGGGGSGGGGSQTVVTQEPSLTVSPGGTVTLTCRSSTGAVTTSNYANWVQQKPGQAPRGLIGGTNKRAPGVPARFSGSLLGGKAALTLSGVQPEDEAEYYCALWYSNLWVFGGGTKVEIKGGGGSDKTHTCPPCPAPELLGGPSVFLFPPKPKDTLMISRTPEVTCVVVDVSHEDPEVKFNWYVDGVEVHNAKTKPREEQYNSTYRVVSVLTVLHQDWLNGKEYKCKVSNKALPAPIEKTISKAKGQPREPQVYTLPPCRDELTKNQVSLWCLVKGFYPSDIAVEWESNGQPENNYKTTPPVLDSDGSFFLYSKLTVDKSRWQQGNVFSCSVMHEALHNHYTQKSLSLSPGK
heavy: EVKLDETGGGLVQPGRPMKLSCVASGFTFSDYWMNWVRQSPEKGLEWVAQIRNKPYNYETYYSDSVKGRFTISRDDSKSSVYLQMNNLRVEDMGIYYCTGSYYGMDYWGQGTSVTVSSASTKGPSVFPLAPSSKSTSGGTAALGCLVKDYFPEPVTVSWNSGALTSGVHTFPAVLQSSGLYSLSSVVTVPSSSLGTQTYICNVNHKPSNTKVDKKVEPKSCDKTHTCPPCPAPELLGGPSVFLFPPKPKDTLMISRTPEVTCVVVDVSHEDPEVKFNWYVDGVEVHNAKTKPREEQYNSTYRVVSVLTVLHQDWLNGKEYKCKVSNKALPAPIEKTISKAKGQPREPQVCTLPPSRDELTKNQVSLSCAVKGFYPSDIAVEWESNGQPENNYKTTPPVLDSDGSFFLVSKLTVDKSRWQQGNVFSCSVMHEALHNRFTQKSLSLSPGK
light: DVVMTQTPLSLPVSLGDQASISCRSSQSLVHSNGNTYLRWYLQKPGQSPKVLIYKVSNRFSGVPDRFSGSGSGTDFTLKISRVEAEDLGVYFCSQSTHVPWTFGGGTKLEIKRTVAAPSVFIFPPSDEQLKSGTASVVCLLNNFYPREAKVQWKVDNALQSGNSQESVTEQDSKDSTYSLSSTLTLSKADYEKHKVYACEVTHQGLSSPVTKSFNRGEC
notes: structure 2 isotype control; CH2 WT
B2: M2IC-AAG (bispecific antibody, human IgG1, kappa, L234A L235A)
chain: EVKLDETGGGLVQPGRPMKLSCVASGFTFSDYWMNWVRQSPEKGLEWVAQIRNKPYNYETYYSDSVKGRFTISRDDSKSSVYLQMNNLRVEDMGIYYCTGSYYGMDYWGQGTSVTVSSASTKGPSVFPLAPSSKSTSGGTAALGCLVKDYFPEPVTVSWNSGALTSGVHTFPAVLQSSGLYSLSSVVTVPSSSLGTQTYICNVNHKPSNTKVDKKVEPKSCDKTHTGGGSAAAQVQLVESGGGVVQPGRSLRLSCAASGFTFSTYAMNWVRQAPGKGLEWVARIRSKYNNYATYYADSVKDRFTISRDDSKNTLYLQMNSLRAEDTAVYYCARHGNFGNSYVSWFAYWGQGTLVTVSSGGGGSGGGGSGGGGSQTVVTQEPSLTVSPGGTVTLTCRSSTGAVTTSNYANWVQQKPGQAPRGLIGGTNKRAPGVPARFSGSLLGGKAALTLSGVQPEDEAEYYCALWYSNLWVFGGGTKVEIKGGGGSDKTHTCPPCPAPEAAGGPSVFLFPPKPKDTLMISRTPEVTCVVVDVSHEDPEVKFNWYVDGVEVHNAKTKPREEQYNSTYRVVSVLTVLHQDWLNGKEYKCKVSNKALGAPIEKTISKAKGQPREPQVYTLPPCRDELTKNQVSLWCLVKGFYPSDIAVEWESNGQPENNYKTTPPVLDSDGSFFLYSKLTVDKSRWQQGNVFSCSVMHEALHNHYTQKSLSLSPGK
heavy: EVKLDETGGGLVQPGRPMKLSCVASGFTFSDYWMNWVRQSPEKGLEWVAQIRNKPYNYETYYSDSVKGRFTISRDDSKSSVYLQMNNLRVEDMGIYYCTGSYYGMDYWGQGTSVTVSSASTKGPSVFPLAPSSKSTSGGTAALGCLVKDYFPEPVTVSWNSGALTSGVHTFPAVLQSSGLYSLSSVVTVPSSSLGTQTYICNVNHKPSNTKVDKKVEPKSCDKTHTCPPCPAPEAAGGPSVFLFPPKPKDTLMISRTPEVTCVVVDVSHEDPEVKFNWYVDGVEVHNAKTKPREEQYNSTYRVVSVLTVLHQDWLNGKEYKCKVSNKALGAPIEKTISKAKGQPREPQVCTLPPSRDELTKNQVSLSCAVKGFYPSDIAVEWESNGQPENNYKTTPPVLDSDGSFFLVSKLTVDKSRWQQGNVFSCSVMHEALHNRFTQKSLSLSPGK
light: DVVMTQTPLSLPVSLGDQASISCRSSQSLVHSNGNTYLRWYLQKPGQSPKVLIYKVSNRFSGVPDRFSGSGSGTDFTLKISRVEAEDLGVYFCSQSTHVPWTFGGGTKLEIKRTVAAPSVFIFPPSDEQLKSGTASVVCLLNNFYPREAKVQWKVDNALQSGNSQESVTEQDSKDSTYSLSSTLTLSKADYEKHKVYACEVTHQGLSSPVTKSFNRGEC
notes: structure 2 isotype control; CH2 AAG
B3: CEA-M3-PG2 (bispecific antibody)
chain 1: QVQLVQSGSELKKPGASVKVSCKASGYTFTVFGMNWVRQAPGQGLEWMGWINTKTGEATYVEEFKGRFVFSLDTSVSTAYLQISSLKADDTAVYYCARWDFYDYVEAMDYWGQGTTVTVSSASTKGPSVFPLAPSSKSTSGGTAALGCLVKDYFPEPVTVSWNSGALTSGVHTFPAVLQSSGLYSLSSVVTVPSSSLGTQTYICNVNHKPSNTKVDKKVEPKSCGGGGSGGGGSQVQLVESGGGVVQPGRSLRLSCAASGFTFSTYAMNWVRQAPGKGLEWVARIRSKYNNYATYYADSVKDRFTISRDDSKNTLYLQMNSLRAEDTAVYYCARHGNFGNSYVSWFAYWGQGTLVTVSSASVAAPSVFIFPPSDEQLKSGTASVVCLLNNFYPREAKVQWKVDNALQSGNSQESVTEQDSKDSTYSLSSTLTLSKADYEKHKVYACEVTHQGLSSPVTKSFNRGECDKTHTCPPPPAPPVAGPSVFLFPPKPKDTLMISRTPEVTCVVVDVSHEDPEVQFNWYVDGVEVHNAKTKPREEQFNSTFRVVSVLTVVHQDWLNGKEYKCKVSNKGLPAPIEKTISKTKGQPREPQVYTLPPCRDELTKNQVSLWCLVKGFYPSDIAVEWESNGQPENNYKTTPPVLDSDGSFFLYSKLTVDKSRWQQGNVFSCSVMHEALHNHYTQKSLSLSPGK
chain 2: QTVVTQEPSLTVSPGGTVTLTCRSSTGAVTTSNYANWVQQKPGQAPRGLIGGTNKRAPGVPARFSGSLLGGKAALTLSGVQPEDEAEYYCALWYSNLWVFGGGTKVEIKSSASTKGPSVFPLAPSSKSTSGGTAALGCLVKDYFPEPVTVSWNSGALTSGVHTFPAVLQSSGLYSLSSVVTVPSSSLGTQTYICNVNHKPSNTKVDKKVEPKSC
heavy: QVQLVQSGSELKKPGASVKVSCKASGYTFTVFGMNWVRQAPGQGLEWMGWINTKTGEATYVEEFKGRFVFSLDTSVSTAYLQISSLKADDTAVYYCARWDFYDYVEAMDYWGQGTTVTVSSASTKGPSVFPLAPSSKSTSGGTAALGCLVKDYFPEPVTVSWNSGALTSGVHTFPAVLQSSGLYSLSSVVTVPSSSLGTQTYICNVNHKPSNTKVDKKVEPKSCDKTHTCPPPPAPPVAGPSVFLFPPKPKDTLMISRTPEVTCVVVDVSHEDPEVQFNWYVDGVEVHNAKTKPREEQFNSTFRVVSVLTVVHQDWLNGKEYKCKVSNKGLPAPIEKTISKTKGQPREPQVCTLPPSRDELTKNQVSLSCAVKGFYPSDIAVEWESNGQPENNYKTTPPVLDSDGSFFLVSKLTVDKSRWQQGNVFSCSVMHEALHNRFTQKSLSLSPGK
light: DIQMTQSPSSLSASVGDRVTITCKASQNVGTNVAWYQQKPGKAPKLLIYSASYRYSGVPSRFSGSGSGTDFTFTISSLQPEDIATYYCHQYYTYPLFTFGQGTKVEIKRTVAAPSVFIFPPSDEQLKSGTASVVCLLNNFYPREAKVQWKVDNALQSGNSQESVTEQDSKDSTYSLSSTLTLSKADYEKHKVYACEVTHQGLSSPVTKSFNRGEC
notes: structure 3; CEA x CD3; CH2 PG2CH2
B4: CEA-M3-SG2 (bispecific antibody)
chain 1: QVQLVQSGSELKKPGASVKVSCKASGYTFTVFGMNWVRQAPGQGLEWMGWINTKTGEATYVEEFKGRFVFSLDTSVSTAYLQISSLKADDTAVYYCARWDFYDYVEAMDYWGQGTTVTVSSASTKGPSVFPLAPSSKSTSGGTAALGCLVKDYFPEPVTVSWNSGALTSGVHTFPAVLQSSGLYSLSSVVTVPSSSLGTQTYICNVNHKPSNTKVDKKVEPKSCGGGGSGGGGSQVQLVESGGGVVQPGRSLRLSCAASGFTFSTYAMNWVRQAPGKGLEWVARIRSKYNNYATYYADSVKDRFTISRDDSKNTLYLQMNSLRAEDTAVYYCARHGNFGNSYVSWFAYWGQGTLVTVSSASVAAPSVFIFPPSDEQLKSGTASVVCLLNNFYPREAKVQWKVDNALQSGNSQESVTEQDSKDSTYSLSSTLTLSKADYEKHKVYACEVTHQGLSSPVTKSFNRGECDKTHTCPPSPAPPVAGPSVFLFPPKPKDTLMISRTPEVTCVVVDVSHEDPEVQFNWYVDGVEVHNAKTKPREEQFNSTFRVVSVLTVVHQDWLNGKEYKCKVSNKGLPAPIEKTISKTKGQPREPQVYTLPPCRDELTKNQVSLWCLVKGFYPSDIAVEWESNGQPENNYKTTPPVLDSDGSFFLYSKLTVDKSRWQQGNVFSCSVMHEALHNHYTQKSLSLSPGK
chain 2: QTVVTQEPSLTVSPGGTVTLTCRSSTGAVTTSNYANWVQQKPGQAPRGLIGGTNKRAPGVPARFSGSLLGGKAALTLSGVQPEDEAEYYCALWYSNLWVFGGGTKVEIKSSASTKGPSVFPLAPSSKSTSGGTAALGCLVKDYFPEPVTVSWNSGALTSGVHTFPAVLQSSGLYSLSSVVTVPSSSLGTQTYICNVNHKPSNTKVDKKVEPKSC
heavy: QVQLVQSGSELKKPGASVKVSCKASGYTFTVFGMNWVRQAPGQGLEWMGWINTKTGEATYVEEFKGRFVFSLDTSVSTAYLQISSLKADDTAVYYCARWDFYDYVEAMDYWGQGTTVTVSSASTKGPSVFPLAPSSKSTSGGTAALGCLVKDYFPEPVTVSWNSGALTSGVHTFPAVLQSSGLYSLSSVVTVPSSSLGTQTYICNVNHKPSNTKVDKKVEPKSCDKTHTCPPSPAPPVAGPSVFLFPPKPKDTLMISRTPEVTCVVVDVSHEDPEVQFNWYVDGVEVHNAKTKPREEQFNSTFRVVSVLTVVHQDWLNGKEYKCKVSNKGLPAPIEKTISKTKGQPREPQVCTLPPSRDELTKNQVSLSCAVKGFYPSDIAVEWESNGQPENNYKTTPPVLDSDGSFFLVSKLTVDKSRWQQGNVFSCSVMHEALHNRFTQKSLSLSPGK
light: DIQMTQSPSSLSASVGDRVTITCKASQNVGTNVAWYQQKPGKAPKLLIYSASYRYSGVPSRFSGSGSGTDFTFTISSLQPEDIATYYCHQYYTYPLFTFGQGTKVEIKRTVAAPSVFIFPPSDEQLKSGTASVVCLLNNFYPREAKVQWKVDNALQSGNSQESVTEQDSKDSTYSLSSTLTLSKADYEKHKVYACEVTHQGLSSPVTKSFNRGEC
notes: structure 3 (fusion heavy chain, cross light chain, heavy, light; the light chain pairs with the heavy and with the fusion heavy chain); CEA x CD3; CH2 SG2CH2

Assays:
[1] = molecular target: T1, Human BCMA; assay: flow cytometry, human tumor cells (table of the BCMA series)
Excerpt: (§1) 1) Cell preparation: T cells isolated from CD3-positive human whole blood were used for a CD3 end affinity detection of multifunctional antibody molecule; positive tumor cells of corresponding antigen were used for detecting affinity of tumor antigen; for example, CD38-positive MM. 1S cells (purchased from the Cell Resource Center of Shanghai Institutes for Biological Sciences, Chinese Academy of Sciences) or RPMI 8226 cells (purchased from the Cell Resource Center of Shanghai Institutes for Biological Sciences, Chinese Academy of Sciences) were used for CD38 antigen detection, and PD-L1 positive H358 cells (purchased from the Cell Resource Center of Shanghai Institutes for Biological Sciences, Chinese Academy of Sciences) were used for PD-L1 antigen detection, and so on. The cells were resuspended with 1% FBS-PBS, adjusted to a density of 4×10⁶/ml, and 50 μl of cells were taken from each well, and then plated at 2×10⁵ per well. Cell plating was operated on ice
(§2) 2) Addition of the antibody: according to the experimental design, the antibody was diluted gradually, and dilution of antibody was operated on ice. For example, the initial concentration of antibody for dilution was 3000 nM, and the antibody was diluted by 3 times with 11 concentration gradients. The diluted antibody was added to a cell well at 50 μl per well, mixed well, and shaked and incubated at 4° C. 1100 rpm/min for 2 h; after washing, the cells were resuspend in 1% FBS-PBS, and a diluted secondary antibody PE anti-human IgG FC (Biolegend, 409304) was added with a final concentration of 8 ug/ml and a volume of 50 μl/well. At the same time, a well only added with cells and secondary antibody was set as a control, the components were mixed well, and incubated under shaking at 1100 rpm/min at 4° C. for 1 h;
(§3) 5) Data analysis: the data was analyzed by a flow analysis software FlowJo 7.6 thereby obtaining an average fluorescence intensity of the specific antibody concentration, plotted by a Graphpad Prism 5 with the antibody concentration (nM) as an abscissa and the average fluorescence intensity as an ordinate; the EC50 value was calculated by the method of One site—Specific binding, and the EC50 value indicated the cell affinity of the antibody to the corresponding target antigen.

[2] = molecular target: T3, Human CD3ε (human, UniProt P07766 23-126); assay: flow cytometry, human T cells
T3 construct: CD3 on T cells isolated from human whole blood
Outline: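 Cell binding by flow cytometry: antigen-positive tumor cells (e.g. MM.1S or RPMI 8226 for CD38) or CD3+ T cells, 2×10⁵/well, with antibody 3-fold diluted over 11 points from 3000 nM, 2 h at 4° C with shaking.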

[3] = molecular target: T4, Monkey CD3 (monkey); assay: flow cytometry, monkey T cells
T4 construct: whole, on cells; also called CD3 of monkey CD3 positive T cells

[4] = molecular target: T2, human CEA; assay: flow cytometry, human tumor cells (CEA+)
Excerpt: as §1, §2, §3

Binder	binding result [1]	EC50 [2] [nM]	EC50 [3] [nM]	EC50 [4] [nM]
B1	no binding	499	540	–
B2	no binding	515	528	–
B3	–	654	–	41.9
B4	–	631	–	30.5
